Reference: US20120041056A1, “NUCLEIC ACIDS SPECIFICALLY BINDING WITH HUMAN FACTOR VII/VIIA AND USES THEREOF” (LFB BIOTECHNOLOGIES, published 2012)

Columns and labels:
[1] = molecular target: Factor VII, recombinant rabbit (Oryctolagus cuniculus, UniProt P98139;P98139 P98139:40-191,P98139:192-444); assay: SPR; no binding to rabbit FVII/VIIa; settings: label: 5'-biotin
Description: Each sample was injected sequentially onto the same chip (solid substrate) containing the Mapt2 aptamer immobilized by means of a biotin-streptavidin interaction. Controls are obtained by injecting blanks containing only running buffer. Signals corresponding to the background noise are obtained by injecting the same samples onto the reference cell containing the immobilized some nucleic acids or other, these signals are subtracted from the signals obtained on the active cell. All the injections were carried out with a flow rate of 30 μl/min for 60 sec; after the injection, running buffer was injected onto the chip at an identical flow rate, for 120 sec. Elution buffer (15 mM EDTA) was then injected for 30 sec with a flow rate of 30 μl/min in order to detach the human or rabbit FVII from the aptamer. The chip makes it possible to study, in real time, the formation and the breaking of the interactions between the FVII HP and the immobilized aptamer by means of surface plasmon resonance (SPR). Binding to the immobilized aptamer is reflected by an increase in the signal, in resonance units (RU), recorded by the apparatus (FIG. 8). These analyses are carried out with the RPS Biacore T100 apparatus (GE).
The modeling of the interactions recorded is carried out using the Biaevaluation software (GE).

[2] = molecular target: Factor VII, rabbit plasma (hydroxyapatite eluate) (Oryctolagus cuniculus, UniProt P98139;P98139 P98139:40-191,P98139:192-444); assay: pulldown; affinity chromatography; 0.2% step yield in eluate, rabbit FVII not retained; settings: tags: enriched from rabbit plasma; label: 5'-biotin
Description: Gel equilibration: 0.050 M Tris-HCl, 0.010 M CaCl₂, 0.05 mM […], pH 7.5, elution: 0.050 M Tris-HCl, 0.010 M EDTA, pH 7.5, 36 μg are injected into the gel with a contact time of 10 minutes. The elution is carried out by injecting 2 ml of elution buffer.
The fractions are analyzed for their amidolytic activity by chromogenic assay using a Stago kit according to the supplier's recommendations (factor VIIa StatClot kit). The amidolytic activity is then converted to pg of FVII contained in said fraction.

[3] = molecular target: T1, Factor VII/VIIa (FVII HP, plasma-derived) (Homo sapiens, UniProt P08709;P08709 P08709:61-212,P08709:213-466); assay: SPR; aptamer immobilized; 50 mM Tris, 50 mM NaCl, 10 mM CaCl2, 4 mM MgCl2, pH 7.4; about 1:1 stoichiometry (Example 4); settings: tags: none; purified from human plasma (98-99% purity); label: 5'-biotin
[4] = molecular target: T1, Factor VII/VIIa (FVII HP, …); assay: SPR; FVII immobilized; 10 mM CaCl2, 4 mM MgCl2, pH 7.4; eluted by 5 mM EDTA; settings: tags: none; purified from human plasma (98-99% purity)
Description: Each sample was injected sequentially onto the same chip (solid substrate) containing the immobilized human FVII. Controls were obtained by injecting blanks containing only running buffer. All the injections were carried out with a flow rate of 30 μl/min for 60 sec; after the injection, running buffer was injected onto the chip at an identical flow rate, for 120 sec. Elution buffer (5 mM EDTA) was then injected for 60 sec with a flow rate of 30 μl/min in order to detach the […]. The chip makes it possible to study, in real time, the formation and the breaking of the interactions between the immobilized human FVII and each of the aptamers Mapt2, Mapt3 and Mapt7 tested, by means of surface plasmon resonance (SPR). Binding to the immobilized human FVII is reflected by an increase in the signal, in resonance units (RU), recorded by the apparatus (FIG. 2). These analyses are carried out with the RPS Biacore T100 apparatus (GE). The modeling of the interactions recorded is carried out using the Biaevaluation software (GE).

[5] = molecular target: T1, Factor VII/VIIa (FVII HP, …); assay: SPR; FVII immobilized, aptamer 1 uM; much higher affinity than other family 2 members; 10 mM CaCl2, 4 mM MgCl2, pH 7.5; settings: tags: none; purified from human plasma (98-99% purity)
Description: A series of 27 nucleic aptamers of the invention (purity: 99%), having a length ranging from 43 to 66 nucleotides depending on the aptamers, were diluted in running buffer (50 mM Tris, 50 mM NaCl, 10 mM CaCl₂, 4 mM MgCl₂, pH 7.5) so as to obtain three aptamer samples. Each aptamer tested was injected at a final concentration of 1 μM in the running buffer.
Each sample was injected sequentially onto the same chip (solid substrate) containing the immobilized human FVII. Controls are obtained by injecting blanks containing only running buffer. All the injections were carried out with a flow rate of 30 μl/min for 60 sec; after the injection, running buffer was injected onto the chip at an identical flow rate, for 120 sec. Elution buffer (5 mM EDTA) was then injected for 60 sec with a flow rate of 30 μl/min in order to detach the aptamer from the immobilized human FVII. The chip makes it possible to study, in real time, the formation and the breaking of the interactions between the immobilized human FVII and each of the aptamers tested, by means of surface plasmon resonance (SPR). Binding to the immobilized human FVII is reflected by an increase in the signal, in resonance units (RU), recorded by the apparatus (figure E1). These analyses are carried out with the RPS Biacore T100 apparatus (GE). The modeling of the interactions recorded is carried out using the Biaevaluation software (GE).

[6] = molecular target: T1, Factor VII/VIIa (FVII HP, …); assay: pulldown; affinity chromatography on streptavidin gel; CaCl2/MgCl2 buffer pH 7.5, eluted with 10 mM EDTA; Mapt2 core in low affinity group by SPR (Example 11); settings: tags: none; purified from human plasma (98-99% purity); label: 5'-biotin
Description: Gel equilibration: 0.050 M Tris-HCl, 0.010 M CaCl₂, 0.05 mM MgCl₂, pH 7.5, elution: 0.020 M Tris-HCl, 0.010 M EDTA, pH 7.5, 240 μg of human plasma FVII purified to 98% is injected with a flow rate of 0.5 ml/min in equilibration buffer.

B1: Mapt2 (biotin-PEG) (ssDNA)
DNA: GGGAGATAGCCACGACCTATGCAGCCAGCCGCAGTGTAAGTGAATGCAGACATGGTCTAAGTGTCCAGGCTGTGCGAAAGC
modifications: 5' spacer of 4 PEG(C18) and terminal biotin
binding result [1]: no binding | binding result [2]: no binding | Kd [3]: 99.9 nM

B2: Mapt2 (ssDNA)
DNA: GGGAGATAGCCACGACCTATGCAGCCAGCCGCAGTGTAAGTGAATGCAGACATGGTCTAAGTGTCCAGGCTGTGCGAAAGC
binding result [4]: binds

CCGCACGCTACGCGCATGAACCCGCGCACACGACTTGAAGTAGC (ssDNA) [Mapt2.2 core sequence]
binding result [5]: binds

CCGCACACCACGCGCATAATCCCGCGCACACGACTTGAAGTAGC (ssDNA, 5'-biotin without spacer) [Mapt-2 core (5'-biotin)]
binding result [6]: binds

AGTCTCCATGTTGCGAACCGAATGGTAAGGGGATCGTACACTAC (ssDNA) [Mapt7]
binding result [4]: binds

CCGGAGACGCGCAGCTCCTATACATGCGCACATGACTTGAAGTC (ssDNA) [Mapt3]
binding result [4]: binds
